Measurements taken from patent US6482410B1, “Cytotactin derivatives that stimulate attachment and neurite outgrowth, and methods of making same” (The Scripps Research Institute, priority 1994, dated 2002).
Entries after “also recorded” stand apart in the source; their conditions may differ.

Legend:
[1] = test system: chicken fibroblast cell line SL29; assay: Cell attachment assay, fibroblasts on protein-coated solid support; assay type: cell-based; conditions: for SL29 fibroblast attachment to coated substrate (words): CT coated at 20 μg/ml, binding fragments at 0.75 μM, non-binding at three times that, 1 hour; for spreading of SL29 cells on substrate: coated at 0.75 μM
Protocol: In the cell attachment assays, a single cell suspension was allowed to settle for a fixed period of time onto a solid support that has been coated with the different CT-derived proteins to be tested for cell attachment (Friedlander, et al., J. Cell Biol. 107: 2329-2340 (1988)). After removing the unbound and loosely bound cells by washing, the attachment and morphology of those cells remaining on the dish were analyzed.
Solid supports, consisting of a circular array of CT or CT:GST fusion proteins bound to a dish, were prepared as follows for the cell attachment assay.
For the initial study, non tissue-culture treated polystyrene plates (Falcon 1008) were spotted with 2 μl of a 0.5 to 1.5 μM solution of CT in PBS for 30 minutes to coat a specific area on the dish with CT. CT was isolated from chicken brain or from fibroblast culture supernatant as described in Crossin, PNAS 88: 11403-11407 (1991) and Hoffman et al., J. Cell Biol. 106: 519-532 (1988). CT was placed in a circular array near the center of the dish and incubated at 37° C. for 30 minutes. After CT had adsorbed to the dish, the central portion of the dish was washed once with 250 μl of 20% (w/v) BSA in PBS. Non-specific binding sites on the dish were then blocked with 250 μl of 20% (w/v) BSA in PBS by incubation for 2 to 3 hours at room temperature.
For the subsequent study with the CT:GST fusion proteins, non tissue-culture treated polystyrene plates (Falcon 1008) were spotted with 2 μl of a 0.5 to 1.5 μM solution of CT:GST fusion protein in PBS as prepared in Example 5.A.2 or GST in PBS for 30 minutes to coat a specific area on the dish with CT:GST fusion protein or GST. The proteins to be tested were placed in a circular array near the center of the dish and incubated at 37° C. for 30 minutes. After the proteins adsorbed to the dish, the central portion of the dish was washed once with 250 μl of 20% (w/v) BSA in PBS. Non-specific binding sites on the dish were then blocked with 250 μl of 20% (w/v) BSA in PBS by incubation for 2 to 3 hours at room temperature.
The chicken fibroblast cell line SL29 (ATCC CRL 1590) was grown to confluence in Dulbecco's Minimum Essential Medium (DMEM; Gibco-BRL, Gaithersburg, Mass.) with 10% (v/v) fetal calf serum (FCS; Gibco-BRL) with penicillin and streptomycin. The cells were passaged the night prior to the assay and seeded at a density of 1:2. Cells were harvested in calcium, magnesium-free Hank's balanced salt solution (CMF-HBSS, Gibco-BRL) with 20 mM Hepes buffer and 5 mM EDTA. Harvested cells were washed in attachment buffer (CMF-HBSS with 10 mM Hepes, 1 mM CaCl2, 1 mM MgCl2, 0.1 mM MnCl2, and 2% (w/v) bovine serum albumin (BSA)) three times. The number of cells was quantitated by counting the cells in a hemocytometer. The cells were resuspended in attachment buffer to a density of 6×10^5 cells/ml.
Chicken fibroblasts, DRG, and solid supports (dishes) coated with CT for use in the cell attachment assays were prepared as described in Examples 5.A.2-4, respectively. The chicken fibroblasts and DRG at a density of 6×10^5 cells/ml were added to the prepared dishes and incubated at 37° C. in 5% CO2 for 1 hour. The dishes were then washed three times in PBS with gentle swirling to remove unattached cells, fixed in 1% glutaraldehyde in PBS, and viewed by phase contrast microscopy. The number of bound cells was determined using a 10× objective with an eyepiece reticle. The number of cells was determined in four fields for each fusion protein dot as the number of cells bound per […]. CT was tested in triplicate. The number of cells bound for CT was expressed as the average of the twelve measurements±standard deviation […].
CT, coated at a concentration of 20 μg/ml, was used as a solid support for SL29 fibroblast attachment. […] Fragments of CT were generated using the pGEX fusion protein system, as described in Example 1. The cell attachment assay was performed essentially as described above for the cell attachment assay to intact CT. […]

[2] = test system: DRG cells; assay: DRG neurite outgrowth, 40 hour culture, morphology; assay type: cell-based, chicken; conditions: DRG cells cultured 40 hours
Protocol: In order to assess the effect to the cell binding regions of CT/TN on the outgrowth of neurites from PNS neurons, DRG cells were cultured for 40 hours on popylysine, CTfn3, CTfn6, CTfg, and CTfn3-CTfn6 mixed substrates. The cultures were then fixed and the cell and neurite morphology was analyzed by phase contrast microscopy. The cells were plated on plastic substrates coated with the same concentrations of CTITN and fusion proteins used in the attachment assay.

[3] = test system: neurons from chick forebrain; assay: CNS neurite outgrowth, forebrain neurons, 7 hours; assay type: cell-based; conditions: 7 hour growth period; for % Sprouting: Table 4, FB (forebrain) neurons
Protocol: Dorsal root ganglia (DRG) cells or forebrain neurons were prepared for the cell attachment assays as follows. DRG from day 6 chicken embryos or forebrains from day 7 chicken embryos were dissected into HBSS. The tissue was pelleted by centrifugation and resuspended in CMF-HBSS and incubated at 37° C. for 10 minutes. The tissue was pelleted again and resuspended in CMF-HBSS containing 0.08% trypsin and allowed to trypsinize for 20 minutes at 37° C. An equal volume of DMEM/F12, 10% FCS, 20 ng/ml nerve growth factor (NGF) (for DRG cells only), 10 μg/ml gentamycin (10% medium) was added, and the tissue was pelleted and resuspended in 2 ml of the 10% medium. The cells were triturated with a fire-polished Pasteur pipette for 15 strokes, and the cells were washed and resuspended in 10 ml of 10% medium. DRG cells were plated in a 10 cm tissue culture dish and incubated for 1 hour at 37° C. in 5% CO2, to allow for attachment of contaminating fibroblasts.
After replating, the cells were harvested, pelleted and washed three times in DMEM/F12, 1% fetal calf serum (FCS), 20 ng/ml NGF (for DRG cells only), 10 μg/ml gentamycin (1% medium), and the number of cells determined using a hemocytometer. The DRG were resuspended to a density of 6×10^5 cells/ml in attachment buffer. The neurons were resuspended to a density of 2×10^4 cells/ml in 1% medium and added to substrates and placed at 37° C., 5% CO2 for 15 hours.
After the growth period, the dishes were gently rinsed with PBS to remove unbound cells, fixed with 1% glutaraldehyde, and viewed by phase contrast microscopy. Ten to forty cells were analyzed for each substrate. Cells were judged as neurite-bearing if the length of the processes was greater than one cell diameter. All cells with neurites were photographed with a 20× objective and total neurite length per neurite-bearing cell was derived from the photographic prints. Percentage of neuronal sprouting was calculated from at least six experiments. Neurite length was calculated from at least three experiments.
To investigate whether CNS neurons could also extend neurites on CT/TN and CT/TN fragments, neurons from chick forebrain were plated at low density on CT/TN, CT/TN fragments and polylysine, and analyzed for neurite outgrowth after a 7 hour growth period (a time period found to be optimal for stable neurite outgrowth from these cells). The lengths of neurites on substrates that supported sprouting were essentially the same for the forebrain neurons and were therefore not quantitated further.

B1: CTfn6: CT:GST fusion protein, fibronectin type III repeat VI, residues 1318-1398 of SEQ ID NO 4 (protein)
chain: VVGSPKGISFSDITENSARVSWTPPRSRVDSYRVSYVPITGGTPNVVTVDGSKTRTKLVKLVPGVDYNVNIISVKGFEESE
modifications: left off: a dimerising Fc or GST
SL29 fibroblast attachment to coated substrate (words) [1]: robust SL29 cell attachment was supported; also recorded: supports both fibroblast and neuronal cell attachment
SL29 fibroblast attachment to coated substrate (words) ([1]; listed as Ctfn6): support fibroblast and neuronal cell attachment
SL29 fibroblast attachment to coated substrate (words) ([1]; listed as sixth repeat): fibroblast attachment activity was localized to the sixth repeat
spreading of SL29 cells on substrate [1]: little or no spreading
neurite and cell morphology after 40 hours [2]: moderately long neurites
forebrain cell attachment [3]: promotes attachment
forebrain neuron sprouting versus polylysine [3]: significant increase
% Sprouting [3]: 8.7 ± 1.9 %

B2: CTfg: CT:GST fusion protein, entire fibrinogen domain, residues 1570-1810 of SEQ ID NO 4 (protein)
chain: SMRSKMIQTVFTTTGLLYPYPKDCSQALLNGEVTSGLYTIYLNGDRTQPLQVFCDMAEDGGGWIVFLRRQNGKEDFYRNWKNYVAGFGDPKDEFWIGLENLHKISSQGQYELRVDLRDRGETAYAVYDKFSVGDAKTRYRLRVDGYSGTAGDSMTYHNGRSFSTFDKDNDSAITNCALSYKGAFWYKNCHRVNLMGRYGDNNHSQGVNWFHWKGHEYSIQFAEMKLRPSSFRNLEGRRKRA
modifications: left off: a dimerising Fc or GST
SL29 fibroblast attachment to coated substrate (words) [1]: robust SL29 cell attachment was supported; also recorded: readily attached; also recorded: attached well
spreading of SL29 cells on substrate [1]: little or no spreading
neurite and cell morphology after 40 hours [2]: basal level of outgrowth
forebrain neuron sprouting versus polylysine [3]: not significantly different
% Sprouting [3]: 2.2 ± 0.5%

B3: CTfn3: CT:GST fusion protein, fibronectin type III repeat III, residues 774-864 of SEQ ID NO 4 (protein)
chain: LDAPSQIEAKDVTDTTALITWSKPLAEIEGIELTYGPKDVPGDRTTIDLSEDENQYSIGNLRPHTEYEYEVTLISRRGDMESDPAKEVFVT
modifications: left off: a dimerising Fc or GST
SL29 fibroblast attachment to coated substrate (words) [1]: robust SL29 cell attachment was supported; also recorded: readily attached; also recorded: attached well
spreading of SL29 cells on substrate [1]: exhibited cell spreading; also recorded: spreading of cells was observed
neurite and cell morphology after 40 hours [2]: long fasciculated processes
forebrain cell attachment [3]: did not support forebrain cell attachment
forebrain neuron sprouting versus polylysine [3]: no effect on neurite outgrowth
% Sprouting [3]: 0%
